The experiment addresses T1, 重组人NT-proBNP (recombinant human N-terminal pro-brain natriuretic peptide, bought from 重庆探生科技有限公司) (human, UniProt P16860 27-102).
T1 construct: also called NT-proBNP校准品; 人脑钠肽原N端肽
T1 sequence (looked up): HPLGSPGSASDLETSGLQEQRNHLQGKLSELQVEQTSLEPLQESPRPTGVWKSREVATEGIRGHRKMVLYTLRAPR
The experiment is described as follows: phage ELISA, NT-proBNP coated, HRP anti-phage antibody, A450. Background: An ELISA detects its analyte on a solid surface through an enzyme-linked reagent.

B1: 人NT-proBNP特异性羊单链抗体scFv, displayed on phage (clone of the third round of panning) (scFv)
scFv: MALSQVRLQESGPSLVKPSQTLSLTCTVSGPSLTDYDVDWVRQAPGKALEWLGFINQGAPTGYDPALKSRLSITRDTSKSQVSLSLSSMTAEDTAVYYCARGAILGWGRGLLVTVSSQGSTSGSGKPGSGEGSTKGGQAVLTQPASVSGSPGQTVTISCTGTSGDIAGYNLVGWYQQLPNSAPKTLIYDVSTRRSGIPARFSGSKSGNTATLTISGLQAEDEADYYCSTSISANSVGFGSGTRLTVLGQPKSAPS
notes: The phage coat fusion partner is not described; also called 单克隆噬菌体
In the case of B1, the binding result was “binds”.

For the origin of these results see patent publication CN109678958A (CHONGQING BIOMEAN TECH CO LTD, dated 2019).
